In publication PMC6086869, “Accelerated pharmaceutical protein development with integrated cell free expression, purification, and bioconjugation” (Scientific Reports, 2018):

What was measured:
[1] = molecular target: Peptide 3 (NpuDnaEC16 capture peptide with ANP photocleavable residue); assay: pull-down; peptide 3 immobilised by its His6 on HisPur Ni-NTA magnetic beads; hCNTF-NpuDnaE(ΔC16) in BYL or HeLa CFPS matrix, overnight, room temperature; captured share from Western blots of the matrix before and after capture; the capture is followed by protein trans splicing, which ligates hCNTF covalently to the peptide's C-terminal stretch
[2] = molecular target: the molecule itself; assay: SDS-PAGE without β-mercaptoethanol in the loading buffer, Western blot; purified hCNTF standard; anti-hCNTF polyclonal antibody for detection

Molecule | amount of hCNTF bound to the beads [1] [μg/mg beads] | binding result [2]
hCNTF-NpuDnaE(ΔC16) synthesised in the HeLa cell free system (from UniProt P26441 1-200) | 1.14 | –
hCNTF-NpuDnaE(ΔC16) synthesised in the tobacco BY-2 lysate (BYL) cell free system (from UniProt P26441 1-200) | 0.42 | –
His6-hCNTF (purified human ciliary neurotrophic factor used as standard) (natural protein, UniProt P26441 1-200, looked up, human ciliary neurotrophic factor, codon optimised gene, plasmid pOPINF-CNTF (Itkonen et al. 2014); also called purified hCNTF; purified His6-hCNTF; source: E. coli Rosetta 2 (DE3) pLysS, purified (Ni-IDA resin, size exclusion chromatography)) MAFTEHSPLTPHRRDLCSRSIWLARKIRSDLTALTESYVKHQGLNKNINLDSADGMPVASTDQWSELTEAERLQENLQAYRTFHVLLARLLEDQQVHFTPTEGDFHQAIHTLLLQVAAFAYQIEELMILLEYKIPRNEADGMPINVGDGGLFEKKLWGLKVLQELSQWTVRSIHDLRFISSHQTGIPARGSHYIANNKKM | – | binds
